Source: paper doi:10.1101/2022.05.30.494040

Assays:
[1] = target: full-length SNAP23 (UniProt O00161); experiment: AlphaScreen or HTRF
[2] = target: full-length Stx2 (human) (UniProt P32856); experiment: AlphaScreen or HTRF
[3] = target: full-length Stx4 (UniProt Q12846); experiment: AlphaScreen or HTRF
[4] = target: Stx3 145-161 peptides (human) (UniProt Q13277); experiment: peptide or protein array
[5] = target: SNAP25 (human) (UniProt P60880); experiment: AlphaScreen or HTRF
UniProt P60880, sequence (P60880 whole entry): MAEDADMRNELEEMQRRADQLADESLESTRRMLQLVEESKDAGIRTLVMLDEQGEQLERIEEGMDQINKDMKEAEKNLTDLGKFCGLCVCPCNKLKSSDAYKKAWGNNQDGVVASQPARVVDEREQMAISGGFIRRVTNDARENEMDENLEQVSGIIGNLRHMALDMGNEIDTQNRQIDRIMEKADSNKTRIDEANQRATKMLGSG

UniProt Q12846, sequence (Q12846 whole entry): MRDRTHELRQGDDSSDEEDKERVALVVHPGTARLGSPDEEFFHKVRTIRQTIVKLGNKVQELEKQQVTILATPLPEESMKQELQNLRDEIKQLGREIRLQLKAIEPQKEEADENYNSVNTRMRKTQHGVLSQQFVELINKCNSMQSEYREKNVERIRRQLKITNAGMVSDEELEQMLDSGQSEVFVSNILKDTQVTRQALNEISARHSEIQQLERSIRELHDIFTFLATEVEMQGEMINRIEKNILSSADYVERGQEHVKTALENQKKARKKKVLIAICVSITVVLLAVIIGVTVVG
UniProt P32856, sequence (P32856 whole entry): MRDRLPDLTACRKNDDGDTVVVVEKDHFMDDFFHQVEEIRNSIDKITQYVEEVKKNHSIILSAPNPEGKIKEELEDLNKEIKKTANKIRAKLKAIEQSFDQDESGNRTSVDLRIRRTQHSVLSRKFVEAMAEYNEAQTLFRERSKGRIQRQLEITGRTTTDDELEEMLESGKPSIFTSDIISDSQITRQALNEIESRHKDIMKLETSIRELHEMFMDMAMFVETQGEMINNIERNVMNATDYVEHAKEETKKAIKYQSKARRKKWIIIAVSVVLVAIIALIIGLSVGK
UniProt O00161, sequence (O00161 whole entry): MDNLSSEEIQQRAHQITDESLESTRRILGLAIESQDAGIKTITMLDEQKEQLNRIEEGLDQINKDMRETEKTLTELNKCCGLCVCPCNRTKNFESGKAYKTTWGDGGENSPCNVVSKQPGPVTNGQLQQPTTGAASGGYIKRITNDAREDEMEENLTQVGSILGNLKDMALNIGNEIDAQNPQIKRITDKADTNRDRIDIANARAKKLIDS

Row | Substance | EC50 [1] | EC50 [2] | EC50 [3] | fold weaker binding than Stx2 144-160 [4] | EC50 [5]
1 | His-tagged recombinant Gβ1γ2 (from UniProt P62873;P59768) (complex) | 78.2 nM | 64.8 nM | 92.1 nM | 5 fold | 
2 | His-tagged recombinant Gβ1γ2 (from UniProt P62873;P59768) (complex; other documents disagree on this pair) |  |  |  |  | 45.2 nM
